# Measured values published in article PMC7619206, “Human mitochondrial glutathione transferases: Kinetic parameters and accommodation of a mitochondria-targeting group in substrates” (Bioorganic & medicinal chemistry, 2024).
# T1: hGSTA4-4 (Homo sapiens, UniProt O15217)
# T1 construct: gene GSTA4
# T1 sequence (O15217 1-222): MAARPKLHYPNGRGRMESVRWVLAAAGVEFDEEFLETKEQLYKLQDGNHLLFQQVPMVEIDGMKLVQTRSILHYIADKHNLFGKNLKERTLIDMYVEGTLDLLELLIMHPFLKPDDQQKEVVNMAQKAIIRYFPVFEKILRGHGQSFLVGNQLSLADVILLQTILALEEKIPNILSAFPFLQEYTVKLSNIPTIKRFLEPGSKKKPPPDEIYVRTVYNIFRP
# T2: hGSTA1-1 (Homo sapiens, UniProt P08263)
# T2 construct: gene GSTA1
# T2 sequence (P08263 1-222): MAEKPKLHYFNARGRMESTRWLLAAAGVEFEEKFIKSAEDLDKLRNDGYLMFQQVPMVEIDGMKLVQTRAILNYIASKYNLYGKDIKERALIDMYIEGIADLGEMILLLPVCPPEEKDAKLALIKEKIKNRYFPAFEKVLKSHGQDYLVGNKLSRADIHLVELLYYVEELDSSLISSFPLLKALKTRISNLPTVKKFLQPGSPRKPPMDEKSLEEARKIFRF
# T3: hGSTK1-1 (Homo sapiens, UniProt Q9Y2Q3)
# T3 construct: gene GSTK1
# T3 sequence (Q9Y2Q3 1-226): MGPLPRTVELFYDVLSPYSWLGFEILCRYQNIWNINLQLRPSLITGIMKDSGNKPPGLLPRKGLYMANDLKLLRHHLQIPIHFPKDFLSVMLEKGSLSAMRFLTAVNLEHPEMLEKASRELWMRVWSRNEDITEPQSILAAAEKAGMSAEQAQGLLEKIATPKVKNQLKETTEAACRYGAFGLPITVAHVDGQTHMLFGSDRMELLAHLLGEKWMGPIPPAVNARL
# Legend:
# [1] = biological target: T1, hGSTA4-4; test: UV/Vis initial rates of GS-conjugate formation, Michaelis-Menten fit; conditions: read-out: hGSTA4-4; 10 mM GSH, 0.1 M HEPES pH 8.0, 30 °C
# [2] = biological target: T2, hGSTA1-1; test: as above; conditions: read-out: KM (mM) / hGSTA1-1; 10 mM GSH, 0.1 M HEPES pH 8.0, 30 °C
# Text: UV/Vis initial rates of GS-conjugate formation, Michaelis-Menten fit on hGSTA1-1
# [3] = biological target: T3, hGSTK1-1; test: as above; conditions: read-out: hGSTK1-1; 10 mM GSH, 0.1 M HEPES pH 8.0, 30 °C
# Text: UV/Vis initial rates of GS-conjugate formation, Michaelis-Menten fit on hGSTK1-1
# [4] = substrate: COC(=O)c1cc([N+](=O)[O-])ccc1Cl; test: UV/Vis initial rates of GS-conjugate formation, Lineweaver-Burk fit; assay type: biochemical, Homo sapiens; conditions: 10 mM GSH, 0.1 M HEPES pH 8.0, 30 °C
# Text: (§1) UV/Vis initial rates of GS-conjugate formation, Lineweaver-Burk fit on hGSTA1-1
# [5] = substrate: COC(=O)c1ccc(Cl)c([N+](=O)[O-])c1; test: as above; assay type: biochemical, Homo sapiens; conditions: 10 mM GSH, 0.1 M HEPES pH 8.0, 30 °C
# Text: as §1
# [6] = substrate: O=C(NCCCCC[P+](c1ccccc1)(c1ccccc1)c1ccccc1)c1cc([N+](=O)[O-])ccc1Cl; test: purified protein; conditions: 10 mM GSH, 0.1 M HEPES pH 8.0, 30 °C
# [7] = substrate: O=C(NCCCCC[P+](c1ccccc1)(c1ccccc1)c1ccccc1)c1ccc(Cl)c([N+](=O)[O-])c1; test: purified protein; conditions: 10 mM GSH, 0.1 M HEPES pH 8.0, 30 °C
# [8] = substrate: O=[N+]([O-])c1cc([N+](=O)[O-])c(NCCCC[P+](c2ccccc2)(c2ccccc2)c2ccccc2)cc1Cl; test: purified protein; conditions: 10 mM GSH, 0.1 M HEPES pH 8.0, 30 °C
# [9] = substrate: COC(=O)c1cc([N+](=O)[O-])ccc1Cl; test: UV/Vis initial rates of GS-conjugate formation, Lineweaver-Burk fit; assay type: biochemical, Homo sapiens; conditions: 10 mM GSH, 0.1 M HEPES pH 8.0, 30 °C; remark: listed apart in the source
# Text: (§2) UV/Vis initial rates of GS-conjugate formation, Lineweaver-Burk fit on hGSTA4-4
# [10] = substrate: COC(=O)c1ccc(Cl)c([N+](=O)[O-])c1; test: as above; assay type: biochemical, Homo sapiens; conditions: 10 mM GSH, 0.1 M HEPES pH 8.0, 30 °C; remark: listed apart in the source
# Text: as §2
# [11] = substrate: COC(=O)c1cc([N+](=O)[O-])ccc1Cl; test: as above; assay type: biochemical, Homo sapiens; conditions: 10 mM GSH, 0.1 M HEPES pH 8.0, 30 °C; remark: listed apart in the source
# Text: (§3) UV/Vis initial rates of GS-conjugate formation, Lineweaver-Burk fit on hGSTK1-1
# [12] = substrate: COC(=O)c1ccc(Cl)c([N+](=O)[O-])c1; test: as above; assay type: biochemical, Homo sapiens; conditions: 10 mM GSH, 0.1 M HEPES pH 8.0, 30 °C; remark: listed apart in the source
# Text: as §3
molecule,measurement,setting,value
"O=[N+]([O-])c1ccc(Cl)c([N+](=O)[O-])c1 [compound 1, 1-chloro-2,4-dinitrobenzene]",Km,[1],253 ± 52 µM
same,Km,[2],0.128 ± 0.018 mM
same,Km,[3],1900 ± 320 µM
"hGSTA1-1 (Homo sapiens) (protein, N-terminal 6xHis tag and TEV site (pNIC-28-BsaI), not cleaved; E. coli BL21(DE3), codon-optimised synthetic gene; Ni-NTA) MAEKPKLHYFNARGRMESTRWLLAAAGVEFEEKFIKSAEDLDKLRNDGYLMFQQVPMVEIDGMKLVQTRAILNYIASKYNLYGKDIKERALIDMYIEGIADLGEMILLLPVCPPEEKDAKLALIKEKIKNRYFPAFEKVLKSHGQDYLVGNKLSRADIHLVELLYYVEELDSSLISSFPLLKALKTRISNLPTVKKFLQPGSPRKPPMDEKSLEEARKIFRF",Km,[4],1670 ± 50 µM
same,kcat,[4],2.31 ± 0.55 s⁻¹
same,Km,[5],2050 ± 770 µM
same,kcat,[5],8.85 ± 2.79 s⁻¹
same,Km,[6],720 ± 17 µM
same,kcat,[6],(4.67 ± 0.19) x 10^-2 s^-1
same,Km,[7],441 ± 10 µM
same,kcat,[7],9.50 ± 0.45 s⁻¹
same,Km,[8],146 ± 20 µM
same,kcat,[8],14.7 ± 0.6 s⁻¹
"hGSTA4-4 (Homo sapiens) (protein, N-terminal 6xHis tag and TEV site (pNIC-28-BsaI), not cleaved; E. coli BL21(DE3), codon-optimised synthetic gene; Ni-NTA) MAARPKLHYPNGRGRMESVRWVLAAAGVEFDEEFLETKEQLYKLQDGNHLLFQQVPMVEIDGMKLVQTRSILHYIADKHNLFGKNLKERTLIDMYVEGTLDLLELLIMHPFLKPDDQQKEVVNMAQKAIIRYFPVFEKILRGHGQSFLVGNQLSLADVILLQTILALEEKIPNILSAFPFLQEYTVKLSNIPTIKRFLEPGSKKKPPPDEIYVRTVYNIFRP",Km,[9],949 ± 27 µM
same,kcat,[9],(5.61 ± 0.37) x 10^-2 s^-1
same,Km,[10],3580 ± 90 µM
same,kcat,[10],0.521 ± 0.203 s⁻¹
same,Km,[7],826 ± 5 µM
same,kcat,[7],2.13 ± 0.05 s⁻¹
same,Km,[8],142 ± 9 µM
same,kcat,[8],4.59 ± 0.08 s⁻¹
"hGSTK1-1 (Homo sapiens) (protein, N-terminal 6xHis tag and TEV site (pNIC-28-BsaI), not cleaved; E. coli BL21(DE3), codon-optimised synthetic gene; Ni-NTA) MGPLPRTVELFYDVLSPYSWLGFEILCRYQNIWNINLQLRPSLITGIMKDSGNKPPGLLPRKGLYMANDLKLLRHHLQIPIHFPKDFLSVMLEKGSLSAMRFLTAVNLEHPEMLEKASRELWMRVWSRNEDITEPQSILAAAEKAGMSAEQAQGLLEKIATPKVKNQLKETTEAACRYGAFGLPITVAHVDGQTHMLFGSDRMELLAHLLGEKWMGPIPPAVNARL",Km,[11],1540 ± 30 µM
same,kcat,[11],(9.45 ± 0.68) x 10^-2 s^-1
same,Km,[12],301 ± 8 µM
same,kcat,[12],0.106 ± 0.008 s⁻¹
same,Km,[8],360 ± 67 µM
same,kcat,[8],0.103 ± 0.008 s⁻¹
